Reference: article PMC9668089

Target: p170, truncated ORF2-encoded protein of aa 439-608 from hepatitis E virus CCJD-517 (hepatitis E virus CCJD-517 (HEV-3))
Test: non-reducing SDS-PAGE

p170, truncated ORF2-encoded protein of aa 439-608 from hepatitis E virus CCJD-517 (domain or fragment)
stoichiometry N: 2
